# IntAct's records for PubMed 35512704
# B1: Speckle-type POZ protein (Homo sapiens), O43791 (parent)
# chain: MSRVPSPPPPAEMSSGPVAESWCYTQIKVVKFSYMWTINNFSFCREEMGEVIKSSTFSSGANDKLKWCLRVNPKGLDEESKDYLSLYLLLVSCPKSEVRAKFKFSILNAKGEETKAMESQRAYRFVQGKDWGFKKFIRRDFLLDEANGLLPDDKLTLFCEVSVVQDSVNISGQNTMNMVKVPECRLADELGGLWENSRFTDCCLCVAGQEFQAHKAILAARSPVFSAMFEHEMEESKKNRVEINDVEPEVFKEMMCFIYTGKAPNLDKMADDLLAAADKYALERLKVMCEDALCSNLSVENAAEILILADLHSADQLKTQAVDFINYHASDVLETSGWKSMVVSHPHLVAEAYRSLASAQCPFLGPPRKRLKQS
# partner: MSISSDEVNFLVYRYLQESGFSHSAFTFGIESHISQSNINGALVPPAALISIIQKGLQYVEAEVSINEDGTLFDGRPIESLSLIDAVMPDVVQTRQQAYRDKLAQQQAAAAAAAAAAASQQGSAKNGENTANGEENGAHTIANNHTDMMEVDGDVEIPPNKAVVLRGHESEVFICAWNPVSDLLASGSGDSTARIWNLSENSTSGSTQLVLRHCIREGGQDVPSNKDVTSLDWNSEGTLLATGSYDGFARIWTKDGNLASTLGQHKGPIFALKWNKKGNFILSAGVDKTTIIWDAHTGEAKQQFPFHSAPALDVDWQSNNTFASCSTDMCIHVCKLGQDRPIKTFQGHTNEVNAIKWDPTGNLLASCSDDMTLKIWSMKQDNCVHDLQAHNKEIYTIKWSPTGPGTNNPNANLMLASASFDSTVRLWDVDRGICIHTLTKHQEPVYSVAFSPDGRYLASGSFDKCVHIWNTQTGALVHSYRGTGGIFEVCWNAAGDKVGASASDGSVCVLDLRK
# B2: Speckle-type POZ protein (Homo sapiens), O43791 (parent)
# chain: B1 chain
# partner: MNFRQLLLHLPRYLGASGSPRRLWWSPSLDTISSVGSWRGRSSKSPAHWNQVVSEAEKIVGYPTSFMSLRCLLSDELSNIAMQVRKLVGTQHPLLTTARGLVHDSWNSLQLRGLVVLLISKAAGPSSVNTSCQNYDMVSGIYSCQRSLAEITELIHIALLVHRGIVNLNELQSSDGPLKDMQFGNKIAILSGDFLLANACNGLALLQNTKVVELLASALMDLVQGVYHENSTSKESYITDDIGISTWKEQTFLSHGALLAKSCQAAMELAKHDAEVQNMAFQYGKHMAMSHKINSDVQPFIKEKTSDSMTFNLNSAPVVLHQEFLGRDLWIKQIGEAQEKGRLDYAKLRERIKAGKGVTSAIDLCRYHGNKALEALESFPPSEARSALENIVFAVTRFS
# B3: Speckle-type POZ protein (Homo sapiens), O43791 (parent)
# chain: B1 chain
# partner: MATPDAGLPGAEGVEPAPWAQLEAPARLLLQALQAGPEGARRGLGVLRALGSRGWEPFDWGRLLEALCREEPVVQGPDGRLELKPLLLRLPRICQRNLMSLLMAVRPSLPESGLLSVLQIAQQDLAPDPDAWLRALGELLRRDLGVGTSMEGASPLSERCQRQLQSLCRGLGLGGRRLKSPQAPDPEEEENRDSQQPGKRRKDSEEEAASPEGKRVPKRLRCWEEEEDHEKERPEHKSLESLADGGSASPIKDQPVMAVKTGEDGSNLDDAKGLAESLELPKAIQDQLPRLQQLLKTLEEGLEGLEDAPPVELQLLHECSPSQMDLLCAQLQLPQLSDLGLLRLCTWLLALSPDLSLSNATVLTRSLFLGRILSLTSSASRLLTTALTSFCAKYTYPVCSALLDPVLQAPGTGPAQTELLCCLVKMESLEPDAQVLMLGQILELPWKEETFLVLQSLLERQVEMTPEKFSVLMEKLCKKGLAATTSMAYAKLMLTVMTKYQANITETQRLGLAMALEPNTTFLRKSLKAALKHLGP
# B4: Speckle-type POZ protein (Homo sapiens), O43791 (parent)
# chain: B1 chain
# partner: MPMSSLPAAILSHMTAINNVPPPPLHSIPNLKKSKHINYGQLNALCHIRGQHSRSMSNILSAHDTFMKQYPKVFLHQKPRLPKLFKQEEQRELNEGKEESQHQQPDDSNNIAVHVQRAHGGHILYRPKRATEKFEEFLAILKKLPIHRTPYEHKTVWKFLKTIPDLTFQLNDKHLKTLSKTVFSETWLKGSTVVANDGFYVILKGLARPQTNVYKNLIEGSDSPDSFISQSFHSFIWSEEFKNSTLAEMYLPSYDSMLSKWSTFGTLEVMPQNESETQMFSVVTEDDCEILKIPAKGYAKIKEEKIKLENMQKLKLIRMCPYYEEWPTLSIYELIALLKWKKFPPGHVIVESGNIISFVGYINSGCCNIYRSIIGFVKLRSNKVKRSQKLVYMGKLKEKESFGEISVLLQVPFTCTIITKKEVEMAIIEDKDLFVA
# B5: Speckle-type POZ protein (Homo sapiens), O43791 (parent)
# chain: B1 chain
# partner: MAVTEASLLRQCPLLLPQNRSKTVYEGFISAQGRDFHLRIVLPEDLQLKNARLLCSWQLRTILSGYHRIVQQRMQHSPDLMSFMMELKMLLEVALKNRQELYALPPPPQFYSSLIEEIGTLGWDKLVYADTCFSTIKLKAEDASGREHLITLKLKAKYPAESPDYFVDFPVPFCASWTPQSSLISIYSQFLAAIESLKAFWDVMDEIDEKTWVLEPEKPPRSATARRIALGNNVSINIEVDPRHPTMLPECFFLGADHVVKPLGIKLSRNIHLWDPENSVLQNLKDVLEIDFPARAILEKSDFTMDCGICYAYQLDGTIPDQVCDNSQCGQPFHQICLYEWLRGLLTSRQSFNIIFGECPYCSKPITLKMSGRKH
# B6: Speckle-type POZ protein (Homo sapiens), O43791 (parent)
# chain: B1 chain
# partner: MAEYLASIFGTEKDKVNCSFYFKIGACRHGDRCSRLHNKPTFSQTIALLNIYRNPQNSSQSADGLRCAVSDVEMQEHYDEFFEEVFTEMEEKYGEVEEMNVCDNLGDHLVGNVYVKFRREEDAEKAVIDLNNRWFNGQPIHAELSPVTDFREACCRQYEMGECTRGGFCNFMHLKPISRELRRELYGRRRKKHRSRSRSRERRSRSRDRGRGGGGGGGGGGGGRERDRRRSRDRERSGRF
# B7: Speckle-type POZ protein (Homo sapiens), O43791 (parent)
# chain: B1 chain
# partner: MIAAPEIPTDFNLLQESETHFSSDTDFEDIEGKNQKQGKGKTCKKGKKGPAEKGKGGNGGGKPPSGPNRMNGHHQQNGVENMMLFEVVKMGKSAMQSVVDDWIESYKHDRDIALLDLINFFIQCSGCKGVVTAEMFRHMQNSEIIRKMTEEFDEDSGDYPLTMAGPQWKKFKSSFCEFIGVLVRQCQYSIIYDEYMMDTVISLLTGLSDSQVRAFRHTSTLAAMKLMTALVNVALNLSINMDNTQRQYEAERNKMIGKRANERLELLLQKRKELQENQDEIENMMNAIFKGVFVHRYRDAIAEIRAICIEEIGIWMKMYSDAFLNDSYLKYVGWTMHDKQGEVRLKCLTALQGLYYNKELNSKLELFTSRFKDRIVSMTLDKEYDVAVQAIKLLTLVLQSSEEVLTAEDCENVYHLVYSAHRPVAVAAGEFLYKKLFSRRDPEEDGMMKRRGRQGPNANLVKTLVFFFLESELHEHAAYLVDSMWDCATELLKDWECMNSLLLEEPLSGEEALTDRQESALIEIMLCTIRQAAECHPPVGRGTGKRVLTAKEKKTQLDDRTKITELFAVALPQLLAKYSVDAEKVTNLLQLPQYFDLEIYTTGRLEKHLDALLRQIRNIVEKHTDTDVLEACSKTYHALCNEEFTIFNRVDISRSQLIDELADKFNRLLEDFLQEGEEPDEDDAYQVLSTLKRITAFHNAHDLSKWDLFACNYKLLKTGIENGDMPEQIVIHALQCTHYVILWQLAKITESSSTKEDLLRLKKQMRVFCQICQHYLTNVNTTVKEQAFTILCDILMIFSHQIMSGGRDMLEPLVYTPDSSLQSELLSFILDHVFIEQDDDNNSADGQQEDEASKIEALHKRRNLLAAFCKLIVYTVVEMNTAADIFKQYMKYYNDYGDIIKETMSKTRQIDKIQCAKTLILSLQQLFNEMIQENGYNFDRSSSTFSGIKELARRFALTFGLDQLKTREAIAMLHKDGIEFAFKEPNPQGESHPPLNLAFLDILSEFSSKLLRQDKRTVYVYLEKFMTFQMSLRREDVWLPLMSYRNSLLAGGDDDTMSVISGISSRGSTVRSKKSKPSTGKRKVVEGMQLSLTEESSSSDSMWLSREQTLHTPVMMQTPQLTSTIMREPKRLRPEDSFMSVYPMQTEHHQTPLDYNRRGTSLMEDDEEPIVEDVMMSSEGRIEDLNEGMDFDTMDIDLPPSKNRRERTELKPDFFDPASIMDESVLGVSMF
# B8: Speckle-type POZ protein (Homo sapiens), O43791 (parent)
# chain: B1 chain
# partner: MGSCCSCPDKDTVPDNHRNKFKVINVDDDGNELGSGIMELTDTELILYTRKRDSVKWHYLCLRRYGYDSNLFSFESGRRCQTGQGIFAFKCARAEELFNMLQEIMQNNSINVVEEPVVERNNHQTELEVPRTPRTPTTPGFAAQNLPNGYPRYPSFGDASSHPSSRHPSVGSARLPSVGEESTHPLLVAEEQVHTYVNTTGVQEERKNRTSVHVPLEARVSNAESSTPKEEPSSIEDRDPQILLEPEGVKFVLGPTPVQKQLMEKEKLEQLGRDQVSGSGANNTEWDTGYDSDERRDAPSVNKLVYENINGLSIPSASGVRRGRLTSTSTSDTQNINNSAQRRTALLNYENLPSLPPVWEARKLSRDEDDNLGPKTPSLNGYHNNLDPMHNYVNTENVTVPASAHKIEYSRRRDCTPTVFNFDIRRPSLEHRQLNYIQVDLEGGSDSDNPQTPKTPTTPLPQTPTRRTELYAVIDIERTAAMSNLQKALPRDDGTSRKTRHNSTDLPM
# Variants of: B1
# Details: with tbl1r_human TBL1XR1, Q9BZK7
row,Variant,effect of a mutation on the interaction
1,Y87C,with no effect

# Variants of: B1
# Details: with tbl1r_human TBL1XR1, Q9BZK7
# Remark: another data set of the same source
row,Variant,effect of a mutation on the interaction
1,F133V,with no effect

# Variants of: B1
# Details: with tbl1r_human TBL1XR1, Q9BZK7
# Remark: another data set of the same source
row,Variant,effect of a mutation on the interaction
1,F133L,with no effect

# Variants of: B1
# Details: with tbl1r_human TBL1XR1, Q9BZK7
# Remark: another data set of the same source
row,Variant,effect of a mutation on the interaction
1,F102C,with no effect

# Variants of: B2
# Details: with dlp1_human PDSS2, Q86YH6
row,Variant,effect of a mutation on the interaction
1,F133L,with no effect

# Variants of: B2
# Details: with dlp1_human PDSS2, Q86YH6
# Remark: another data set of the same source
row,Variant,effect of a mutation on the interaction
1,Y87C,with no effect

# Variants of: B3
# Details: with fance_human FANCE
row,Variant,effect of a mutation on the interaction
1,Y87C,with no effect

# Variants of: B4
# Details: with cnbd1_human CNBD1, Q8NA66
row,Variant,effect of a mutation on the interaction
1,F133V,with no effect

# Variants of: B4
# Details: with cnbd1_human CNBD1, Q8NA66
# Remark: another data set of the same source
row,Variant,effect of a mutation on the interaction
1,F133L,with no effect

# Variants of: B4
# Details: with cnbd1_human CNBD1, Q8NA66
# Remark: another data set of the same source
row,Variant,effect of a mutation on the interaction
1,Y87C,with no effect

# Variants of: B5
# Details: with fancl_human FANCL
row,Variant,effect of a mutation on the interaction
1,F133L,with no effect

# Variants of: B5
# Details: with fancl_human FANCL
# Remark: another data set of the same source
row,Variant,effect of a mutation on the interaction
1,Y87C,with no effect

# Variants of: B6
# Details: with U2AF1, Q01081
row,Variant,effect of a mutation on the interaction
1,F133V,with no effect

# Variants of: B6
# Details: with U2AF1, Q01081
# Remark: another data set of the same source
row,Variant,effect of a mutation on the interaction
1,F133L,with no effect

# Variants of: B6
# Details: with U2AF1, Q01081
# Remark: another data set of the same source
row,Variant,effect of a mutation on the interaction
1,Y87C,with no effect

# Variants of: B6
# Details: with U2AF1, Q01081
# Remark: another data set of the same source
row,Variant,effect of a mutation on the interaction
1,F102C,with no effect

# Variants of: B7
# Details: with stag2_human STAG2, Q8N3U4
row,Variant,effect of a mutation on the interaction
1,F102C,with no effect

# Variants of: B7
# Details: with stag2_human STAG2, Q8N3U4
# Remark: another data set of the same source
row,Variant,effect of a mutation on the interaction
1,Y87C,with no effect

# Variants of: B7
# Details: with stag2_human STAG2, Q8N3U4
# Remark: another data set of the same source
row,Variant,effect of a mutation on the interaction
1,F133V,with no effect

# Variants of: B7
# Details: with stag2_human STAG2, Q8N3U4
# Remark: another data set of the same source
row,Variant,effect of a mutation on the interaction
1,F133L,with no effect

# Variants of: B8
# Details: with frs2_human FRS2, Q8WU20
row,Variant,effect of a mutation on the interaction
1,F133V,with no effect

# Variants of: B8
# Details: with frs2_human FRS2, Q8WU20
# Remark: another data set of the same source
row,Variant,effect of a mutation on the interaction
1,F133L,with no effect
